Assay results: US20190055316A1 (published 2019)

Legend:
158.3 [1] = assay: Biacore
151 [2] = assay: Biacore
2.69 LC2 = assay: Biacore
158.3 [3] = assay: KinExA
151 [4] = assay: KinExA

Row | Kd (158.3 [1]) [nM] | Kd 151 [2] [nM] | Kd (2.69 LC2) [nM] | Kd (158.3 [3]) [nM] | Kd 151 [4] [nM] | Binder
1 | 2.4 | 17.4 | 0.228 | – | – | Soluble human MSLN (other) EVEKTACPSGKKAREIDESLIFYKKWELEACVDAALLATQMDRVNAIPFTYEQLDVLKHKLDELYPQGYPESVIQHLGYLFLKMSPEDIRKWNVTSLETLKALLEVNKGHEMSPQAPRRPLPQVATLIDRFVKGRGQLDKDTLDTLTAFYPGYLCSLSPEELSSVPPSSIWAVRPQDLDTCDPRQLDVLYPKARLAFQNMNGSEYFVKIQSFLGGAPTEDLKALSQQNVSMDLATFMKLRTDAVLPLTVAEVQKLLGPHVEGLKAEERHRPVRDWILRQRQDDLDTLGLGLQGGIPNGYLVLDLSMQEALS
2 | – | – | – | 0.0122 | 0.03 | Native hu MSLN (cells) (other) EVEKTACPSGKKAREIDESLIFYKKWELEACVDAALLATQMDRVNAIPFTYEQLDVLKHKLDELYPQGYPESVIQHLGYLFLKMSPEDIRKWNVTSLETLKALLEVNKGHEMSPQAPRRPLPQVATLIDRFVKGRGQLDKDTLDTLTAFYPGYLCSLSPEELSSVPPSSIWAVRPQDLDTCDPRQLDVLYPKARLAFQNMNGSEYFVKIQSFLGGAPTEDLKALSQQNVSMDLATFMKLRTDAVLPLTVAEVQKLLGPHVEGLKAEERHRPVRDWILRQRQDDLDTLGLGLQGGIPNGYLVLDLSMQEALS
